Tests used:
[1] = target: glucose-6-phosphate dehydrogenase (G6PD) from Gluconacetobacter diazotrophicus PAL5 (Gluconacetobacter diazotrophicus PAL5); test: SEC; Sephacryl 200 (16/60) gel filtration column, 100 mM Tris-HCl pH 7.35, 0.01 M MgCl2, 0.3 mL/min, AKTA pure FPLC; calibrated with Bio-Rad gel filtration standard; oligomeric state of the native protein
[2] = substrate: NC(=O)c1ccc[n+]([C@@H]2O[C@H](COP(=O)(O)OP(=O)(O)OC[C@H]3O[C@@H](n4cnc5c(N)ncnc54)[C@H](OP(=O)(O)O)[C@@H]3O)[C@@H](O)[C@H]2O)c1; test: purified protein; assay type: biochemical, Gluconacetobacter diazotrophicus; conditions: G6P fixed at 630 µM (~10-fold Km), NADP+ 0 to 250 µM
[3] = substrate: O=P(O)(O)OC[C@H]1OC(O)[C@H](O)[C@@H](O)[C@@H]1O; test: purified protein; assay type: biochemical, Gluconacetobacter diazotrophicus; conditions: NADP+ fixed at 72 µM (~10-fold Km), G6P 0 to 2 mM

stoichiometry N [1] | Molecule | Km [2] [µM] | Km [3] [µM]
4 | glucose-6-phosphate dehydrogenase (G6PD) from Gluconacetobacter diazotrophicus PAL5 (enzyme) |  | 
 | G6PD from GDI (Gluconacetobacter diazotrophicus PA1 5) (protein, full-length, N-terminal His6 tag removed by TEV protease, E. coli BL21(DE3)pLysS, 510 residues (ORF 1530 bp), 56,483 Da monomer, homotetramer 220 kDa) MDGIVASASSEIQGAGLQPRRAPPCTFVVFGGGGDLTKRLLVPAIYNLACAGLLDDGFSIVAVDWAELSDDILRAQFHEALQDFVAKRGTAAAVLRDDIWRWLNTRVSYLRGSFEDPATFERLGARIGSGNAVFYLAVAARFFGTIVDRLGESHLTDEVGETYRRVIVEKPFGHDLNSARELNIRLLRTLRERQIYRIDHYLGKETVQNIMALRFSNGFFEPLWNRQNIDHVQITAAETVGVEKRGRFYEGTGALRDMVPNHLMQLLAMTAMEAPVSFDADAVRDEKSKVLKAIHCTGPEDVVRGQYGGGVLGGTPVRGYRDEPDVAPASRTETYVAMKLAIDNWRWAGVPFYLRTGKRLAVRKTEIAIHFRRAPYALFRDTPVDRLTPNIMTIHIQPTEGVTLQFGAKIPGPTVRLGGVRMKFDYSEWFSEGPSTGYETLIYDCLTGDATLFQRADNIEAGWRAVQPALDWGERTEAAPLCPYAAGSAGPIEADALLARDGRQWQDLAE | 7.2 | 63

— paper PMC6862599, “Molecular Cloning and Exploration of the Biochemical and Functional Analysis of Recombinant Glucose-6-Phosphate Dehydrogenase from Gluconoacetobacter diazotrophicus PAL5” (International Journal of Molecular Sciences, 2019)
